B1: 992 (protein, listed as Roseburia intestinalis)
chain: MGKIYAAKTNHITNPIGFNMDSIAFSWKVKGCRGQEQKYARIVISKNKTFTDICYDTGETELDSLSTRVEFEIQPYTRYYWKVIVTTDVEEVIESDVQFFETAKMDEPWTGRWITCDSSQERHPIFSKRIEPKKEVKSARLYICGLGLYEAYFLGENKENPKKIGDEYLTPYCNNYDRWIQYQTYDITEQAERGGVLSVLLGNGWYKGRFGFNDPEREAYYGDEWKLIAEVHIEYKDGTKDVISSDETWSVTRSNLWFSNIYDGERRDDTLPPVEESPARIAKAPKGRLMERLSLPVKVQEEMKPAELIHTPAGEDVFDLGQEITGIFQLRVNEPSGTIIRIQTGEILQDGCFYNENLRTALSEYVYVSDGMEKVIIPHFTYYGYRYVKVSGVTNLSCEDFMAIVLYSDYESIGTVETGSELVNKLISNIEWGMKGNFLDVPTDCPQRDERMGWTGDTQVFSATASYLADTYAFYRKYLYDLYQEQLLAGGMVPEIVPTFGPTKCSCAWGDAACIIPWNVYLFSGDKTILENQIESMKAWVDYIRRIDGDHHGWRQVFHYGDWLALDRTGAAANSVYGATDEAYIADIYYAASAQIVAKAAEVLGLEETRQEYHKIADRQWQVVKEEYFTATGRCAVKTQTGLILALKYHLSENEELTREMLKKLLRDNKNKLNTGFVGTPLLCNVLTDHGMTDAAYRLLLNEEYPGWLHEVKLGATTVWERWNSLDESGHVSSTGMNSLNHYSYGAILEWIFRHAAGIDVMEQSPGGKVMRISPKVNSELKYVKAVYDSATGCYQCGWEILEGNKITITVTVPFGGKAEVVLPYAPECIYEDIENPLFEAVENGICHVKAGEYEVVYEASEPLKKRYSIDSTMEELLNHPDIRAFLSQMVEVDMIPDIAYGLSLRDVAKTFAGEIKPDEAQMLDKALAKF
B2: 993 (protein)
chain: MKKLLLCLCFLAIGFLSNAKIKPTQLTCEYLKNPSVVDVLQPRLAWINVADAGERGQEQTAYQIRVASLKEKLENADLWDSGKVKDDASIRVKYDGEKLVSRQDCWWQVRVWDKNNEVSEWSEPAYWHMGLLNENDWTANWIGVPWQGEETLPKPASPAATLPGELPPPAPLFRKEFNATKQVEKAVAYVTGLGYFELYLNGEKVGDDVLVPNQTNYGKRPALTQQYIPLDDNFKEYKVMYLAYDISDQLVSGANTFGAILGNGFYNPSKHWALGYGTPRLLVQVHVAYTDGTEELIVSDESWKVSKSPILMDMVYYGEHYDARLEQDGWCSAGFDDSAWENAILRKAPEGKLVAHTAHPDKVYETLQPVRIEKMYNGNYKVDFGEEISGWVRLKNVEGPEGHKVKINYLSNNYSGDNSYIFKGEGKENYAARFNWFVFREVEIENWPGVLAPENICAEAINTYIEESAHFETSNPLFNQVNKIWKRSQTDNMHGGIASDCPHRERSPYTGDGQVACVTVMHNFDAQNFYYKWIHDMIGAQNVKTGYVPNGAPWQPGCGGGVAWGAAINIIPWEFYVHYGAVDMLEEAYEPMKEYVRYMQTWVNNEGIMNSQRVGLDGNVLQWFNLGEWVTPGDLPPDSLVHTFYFWRCADITAKTAEILGKRKEAKRNRELAETTQSAFHKCFFDAEKGTYGNAGANIFALKMGVPENEYQRVINALKANIKKNKGHLDTGIFGTQFFFEVLSENGLHELAYEAMNKKEEPGYGRWLTLGATTSWENWNTDGSHNHPMFGGGLVWLYRKLAGMQADEKNPGYRHIIFHPQPIKELEFAEYFNKTPYGKAGIKWQQTEGKLSVGVTVPVGCTATVILPGGHFLADGKAMEKVAEVQLVSQKEDELIIKVGAGNYQFSN
modifications: Draconibacterium orientale
B3: 1077 (protein, listed as Bacillus sp.)
chain: MAGRNWNASWIWGGQEESPRNEWRCFRGSFDAPASVEGPAMLHITADSRYVLFVNGEQVGRGPVRSWPKEQFYDSYDIGGQLRPGVRNTIAVLVLHFGVSNFYYLRGRGGLIAEIEADGRTLAATDAAWRTERLGGQRSNSPRMACQQGFGEVIDARELAEDWALPAFDDGGWAQARSIGPAGTAPWTSLVPRDIPFLTEEKLYPASIQSLSRVKAPKYAAALDLRNQMVPESVNHANPVSYCGYVATILTLETSGVVTLGFPTGVRGSGVWVDGVLQTEWTGVQPERYYSLNLAAGEHLVLVDITSSDHGGSSHFAIDSEAAFTLRSPAGDNGVPLATIGTFDQSEYIDHRPGRRMQTDHPDYRALPEAAPTAAALEAFASWVKPFEPSLYTEENVFGSNVWRTLAERRAVPRSVLNAILPVPEPGVLPVFEDGDCELVIDLGAERSGFIGFELEAPAGTIIDAYGVEYMREGYTQHTYGLDNTFRYICREGRQSYVSPVRRGFRYLFLTVRGNSAPVKLHEIYIRQSTYPVAEQGSFRCSDALLNATWEISRHTTRLCMEDTFVDCPSYEQVFWVGDSRNEALVNYYVFGETEIVERCLNLVPGSADETPLYLDQVPSAWSSVIPNWTFFWILACREYAAHTGNEAFAARIWPAVKHTLTHYLEHIDDSGLLNMAGWNLLDWAPIDQPNEGIVTHQNLFLVKALRDSRALAAAAGATEEADAFAARADLLAETINAVLWDEEKRAYIDCIHADGRRSDVYSMQTQVVAYLCGVAQGEREAVIEGYLSSPPPAFVQIGSPFMSFFYYEALEKAGRQTLMLDDIRRNYGQMLRYDATTCWEMYPNFAENRSNPDMLTRSHCHAWSAAPGYFLGSSILGVKRGADGWRTVDIAPQPCDLTWAEGVVPLPQGGHIAVSWEFVSAGKLKLRIEAPEDIEVNVTLPEGIEGEVTQVKYMS
B4: 1076 (protein, listed as Kribbella flavida)
chain: MSFRTRFGCLLAAVLLLTPLVPATGSPPATRETLQVRNLKTNNLTNPLGVPGTPPRLSWQLDGDRRGITQSRYQIRVASTPAKTARPDIWDSGVVRSTDSIEVPYGGPALTTGTAYHWTVRVWDDAGKASAWSPVATFETGPLRPGDWQGDWIGADNQPGPEWTDTTIDADVTLVKDALGVFFRGRGGVGYMWQLNQLTPDKPLLRPHVRQPGGGYVLLGEIPLAAGTDLKQRHHLRITVAGRTITTWLDGVQVDSRERSDHNAPGVVGFRTDGAEHGVVHSLKVTNVAGEVLVDTAFPAGDQTFPDGTVRAEGGLQVKGTTDLWLPGKPIPVFRKAISLPKAKKVASARIDAAAQGIYELTVNGRKAGDHQLAPGWTDYARRIQSQTYDVTKLLKSGANTLGAEVAPGWFTGNLAMFGPNKYGTDTAFIAQLRVTYTDGTADVFATDSSWQTAPGAVRVADLLNGESYDARRTASEWVPAQVRPSATAKIVPQTDQPVRVTQELKARAIPSPTPGAYLYDLGQNMVGIARLTLHGRPGQTVKIRYGEVLNPDGTLYTDNLRSAKATDHYTFATSRPETYQPRFTFHGFRYVEVSGLPTAPPASAIVGVVLGTDAEQVNEFRTNSPLVNQLHSNIVWGQRGNFLSIPTDTPARDERMGWTGDINVFARTAVYNLDSQAFLTKWLQDLRDTQRADGAYASVAPTVPNSFDGGMGNAGWADAGVNVPWTLWQAYGDTSVIRQHYASMTRYVDYLVASSNGLIRGGGDYGDWLNLDDPTPGELIGTSFVAKGARQLSQMAAAIGHTADAAKYQRVYEDVRAAFAARFVAADGKVGSDSQTGYILAFTSDLVPADRIAAAGEHFAATILRRDTHLSTGFLGVDGLLPVLTKIGRTDLAYRLLQNTSYPSWGYEIGKGATTIWERWNSINPDGTFNDVGMNSFNHYAYGAVGEWMYRTLAGLSAAEPGYRKALIAPTPGDGIDTAQLRHRTPYGEVGSQWRRLADGRFTLEVEVPANTTATVRLPAAEARQITESGRALSRAVGVSGVVDEGTTVALTVGSGNYRFAVRP

Experiment: Experiment 6-1: specificity of rhamnosidases towards other rhamnose residues (C3 saccharide rhamnose, C28 saccharide rhamnose)
Assay type: biochemical, Quillaja saponaria
Conditions: TBE 2%, pH 7.5, 30 degC, 18 h; LCMS/MS; negative controls 0.18, 0.17

In order of rising “ratio PP/QS-21” value:
1. B2  0.18
2. B3  0.18
3. B4  0.19
4. B1  0.20

Experiment: Experiment 6-3: screening of rhamnosidases for derhamnosylation of saponins in crude bark extract (80%), relative % of Left, Middle and Right Peak by UV HPLC
Assay type: biochemical, Quillaja saponaria
Conditions: CBE 80%, pH 7.4, 30 degC, 19.5 h, mainly QS-17 family, negative control 27%
Outline: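 Clarified lysates of expressed rhamnosidase variants were incubated with crude bark extract (pH 7.4, final 80%) at 30 degC with shaking for 19.5 h, then quenched with MeCN+2% AcOH. UV HPLC gave relative % of Left (QS-17), Middle (QS-18/desglucosyl-QS-17) and Right (QS-21) peaks.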

In order of falling “Left Peak” value:
1. B3  26%
2. B4  26%
3. B2  25%
4. B1  21%

Same assay, conditions: CBE 80%, pH 7.4, 30 degC, 19.5 h, mainly QS-18 and desglucosyl-QS-17 family, negative control 48%

In order of falling “Middle Peak” value:
1. B1  49%
2. B2  49%
3. B3  48%
4. B4  48%

Same assay, conditions: CBE 80%, pH 7.4, 30 degC, 19.5 h, mainly QS-21 family, negative control 26%

In order of rising “Right Peak” value:
1. B2  26%
2. B3  27%
3. B4  27%
4. B1  30%

Experiment: Experiment 6-1: screening of rhamnosidases for derhamnosylation of saponins in treated bark extract (2%), desglucosyl-QS-17 2134 to QS-21 1988 (PAR %)
Assay type: biochemical, Quillaja saponaria
Conditions: TBE 2%, pH 7.5, 30 degC, 18 h; TIC peak area ratio percent, LCMS/MS; negative controls 2.719, 2.158

In order of rising “Peak75 (PAR %)” value:
1. B1  0.000%
2. B4  1.961%
3. B3  2.138%
4. B2  2.211%

Experiment: Experiment 6-1: screening of rhamnosidases for derhamnosylation of saponins in treated bark extract (2%), QS-17 2296 to QS-18 2150 (PAR %)
Assay type: biochemical, Quillaja saponaria
Conditions: TBE 2%, pH 7.5, 30 degC, 18 h; TIC peak area ratio percent of rhamnosylated starting saponin to derhamnosylated product, LCMS/MS; negative controls 4.876, 5.225

In order of rising “QS-17 (PAR %)” value:
1. B1  0.000%
2. B4  3.766%
3. B2  3.836%
4. B3  3.964%

Experiment: Experiment 6-1: screening of rhamnosidases for derhamnosylation of saponins in treated bark extract (2%), QS-17 2310 to QS-18 2164 (PAR %)
Assay type: biochemical, Quillaja saponaria
Conditions: TBE 2%, pH 7.5, 30 degC, 18 h; TIC peak area ratio percent, LCMS/MS; negative controls 3.061, 2.429

In order of falling “Peak57 (PAR %)” value:
1. B3  2.532%
2. B4  1.295%
3. B2  1.129%
4. B1  0.000%

Experiment: Experiment 6-2: screening of rhamnosidases for derhamnosylation of saponins in treated bark extract (25%), relative % of Left, Middle and Right Peak by UV HPLC
Assay type: biochemical, Quillaja saponaria
Conditions: TBE 25%, pH 7.4, 19.5 h, mainly QS-17 family, negative control 24%

In order of falling “Left Peak” value:
1. B3  23%
2. B4  22%
3. B2  18%
4. B1  7%

Same assay, conditions: TBE 25%, pH 7.4, 19.5 h, mainly QS-18 and desglucosyl-QS-17 family, negative control 50%

In order of rising “Middle Peak” value:
1. B3  51%
2. B4  52%
3. B2  56%
4. B1  62%

Same assay, conditions: TBE 25%, pH 7.4, 19.5 h, mainly QS-21 family, negative control 26%

In order of falling “Right Peak” value:
1. B1  31%
2. B2  27%
3. B3  26%
4. B4  26%

From patent US20240026407A1, “MODIFICATION OF SAPONINS” (GLAXOSMITHKLINE BIOLOGICALS SA, priority 2020, published 2024)
